We go through three molecules from paper PMC2408616, “Modular Organization and Combinatorial Energetics of Proline–Tyrosine Nuclear Localization Signals” (PLoS Biology, 2008).

The chains are these.
B3: Kap104p (receptor)
chain: MASTWKPAEDYVLQLATLLQNCMSPNPEIRNNAMEAMENFQLQPEFLNYLCYILIEGESDDVLKQHYSLQDLQNNRATAGMLLKNSMLGGNNLIKSNSHDLGYVKSNIIHGLYNSNNNLVSNVTGIVITTLFSTYYRQHRDDPTGLQMLYQLLELTSNGNEPSIKALSKIMEDSAQFFQLEWSGNTKPMEALLDSFFRFISNPNFSPVIRSESVKCINTVIPLQTQSFIVRLDKFLEIIFQLAQNDENDLVRAQICISFSFLLEFRPDKLVSHLDGIVQFMLHLITTVNEEKVAIEACEFLHAFATSPNIPEHILQPYVKDIVPILLSKMVYNEESIVLLEASNDDDAFLEDKDEDIKPIAPRIVKKKEAGNGEDADDNEDDDDDDDDEDGDVDTQWNLRKCSAATLDVMTNILPHQVMDIAFPFLREHLGSDRWFIREATILALGAMAEGGMKYFNDGLPALIPFLVEQLNDKWAPVRKMTCWTLSRFSPWILQDHTEFLIPVLEPIINTLMDKKKDVQEAAISSVAVFIENADSELVETLFYSQLLTSFDKCLKYYKKKNLIILYDAIGRFAEKCALDETAMQIILPPLIEKWALLSDSDKELWPLLECLSCVASSLGERFMPMAPEVYNRAFRILCHCVELEAKSHQDPTIVVPEKDFIITSLDLIDGLVQGLGAHSQDLLFPQGTKDLTILKIMLECLQDPVHEVRQSCFALLGDIVYFFNSELVIGNLEDFLKLIGTEIMHNDDSDGTPAVINAIWALGLISERIDLNTYIIDMSRIILDLFTTNTQIVDSSVMENLSVTIGKMGLTHPEVFSSGAFANDSNWNKWCLSVNALDDVEEKSSAYMGFLKIINLTSTEVTMSNDTIHKIVTGLSSNVEANVFAQEIYTFLMNHSAQISAINFTPDEISFLQQFTS

Test [1] has as its target T1, Kap104p (yeast (S. cerevisiae), UniProt P38217 1-918).
T1 construct: Kap104p, yeast homolog of Kapβ2; gene a gift from J. Aitchison, subcloned into pGEX-Tev; also called yeast Karyopherin β2 homolog; source: E. coli Rosetta(DE3)pLysS, purified (glutathione sepharose, TEV cleavage, anion exchange, gel filtration)
T1 sequence (looked up): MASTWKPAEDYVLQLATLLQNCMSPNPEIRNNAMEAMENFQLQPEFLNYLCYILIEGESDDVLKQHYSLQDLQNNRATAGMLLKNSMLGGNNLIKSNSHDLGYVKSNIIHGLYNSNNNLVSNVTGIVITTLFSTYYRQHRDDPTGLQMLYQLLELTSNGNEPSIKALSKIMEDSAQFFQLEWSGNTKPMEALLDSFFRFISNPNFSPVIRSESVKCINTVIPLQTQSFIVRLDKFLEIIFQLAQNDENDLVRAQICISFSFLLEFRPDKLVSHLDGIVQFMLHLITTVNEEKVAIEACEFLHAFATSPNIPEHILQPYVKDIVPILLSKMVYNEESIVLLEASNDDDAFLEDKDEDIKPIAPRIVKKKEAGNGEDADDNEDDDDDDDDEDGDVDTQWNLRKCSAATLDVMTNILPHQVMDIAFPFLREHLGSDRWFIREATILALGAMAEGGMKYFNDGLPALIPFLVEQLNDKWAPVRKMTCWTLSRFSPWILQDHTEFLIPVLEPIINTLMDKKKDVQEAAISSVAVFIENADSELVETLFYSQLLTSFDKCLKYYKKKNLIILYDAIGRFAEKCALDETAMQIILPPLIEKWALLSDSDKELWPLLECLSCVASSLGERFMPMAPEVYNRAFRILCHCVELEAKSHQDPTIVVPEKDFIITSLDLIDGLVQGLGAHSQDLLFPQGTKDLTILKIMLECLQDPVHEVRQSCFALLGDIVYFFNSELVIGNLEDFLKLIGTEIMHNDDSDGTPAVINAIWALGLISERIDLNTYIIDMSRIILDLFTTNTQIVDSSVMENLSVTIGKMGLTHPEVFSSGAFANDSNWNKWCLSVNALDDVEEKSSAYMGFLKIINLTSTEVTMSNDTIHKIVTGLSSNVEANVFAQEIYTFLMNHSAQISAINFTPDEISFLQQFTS
Kind of test: pull-down; ~30 μg Kap104p added to ~10 μg GST protein immobilized on 20 μl glutathione sepharose; washes with TB buffer (20 mM HEPES pH 7.3, 110 mM KAc, 2 mM MgAc, 1 mM EGTA, 2 mM DTT, 20% glycerol); second incubation with buffer or RanGTP (5-fold molar excess); SDS-PAGE, Coomassie. Particulars: both partners purified.

Test [2] has as its target Kap104p (UniProt P38217). Kind of test: ITC.
Test [3] concerns the target B3. Kind of test: ITC. Background: In ITC the heat of successive injections is recorded.
Test [4] addresses T2, MBP–Nab2p NLS R235A (S. cerevisiae, UniProt P32505 201-251, R235A).
T2 sequence: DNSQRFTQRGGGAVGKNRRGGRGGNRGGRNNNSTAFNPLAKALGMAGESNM
The experiment in a line: ITC.

In test [5] the target is T3, MBP–Nab2p NLS R235H (S. cerevisiae, UniProt P32505 201-251, R235 to histidine).
T3 sequence: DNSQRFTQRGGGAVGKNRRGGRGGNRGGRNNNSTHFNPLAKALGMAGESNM
The experiment in a line: ITC.

For test [6], the target named is T4, MBP–Nab2p NLS F236A (S. cerevisiae, UniProt P32505 201-251, F236A).
T4 sequence: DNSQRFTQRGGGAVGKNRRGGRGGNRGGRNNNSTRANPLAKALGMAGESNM
Kind of test: ITC.

The target in test [7] is T5, MBP–Nab2p NLS F236L (S. cerevisiae, UniProt P32505 201-251, F236L).
T5 sequence: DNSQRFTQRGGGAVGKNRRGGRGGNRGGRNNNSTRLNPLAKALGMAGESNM
Kind of test: ITC.

Test [8] deals with T6, MBP–Nab2p NLS, all of the arginines mutated to lysines (S. cerevisiae, UniProt P32505 201-251, R218K | R219K | R222K | R226K | R229K).
T6 sequence: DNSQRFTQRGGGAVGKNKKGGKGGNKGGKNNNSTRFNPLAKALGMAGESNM
The experiment in a line: ITC.

B1: GST–Nab2p, full-length (natural protein, S. cerevisiae, UniProt P32505 1-525, looked up)
chain: MSQEQYTENLKVIVAEKLAGIPNFNEDIKYVAEYIVLLIVNGGTVESVVDELASLFDSVSRDTLANVVQTAFFALEALQQGESAENIVSKIRMMNAQSLGQSDIAQQQQQQQQQQQPDIAQQQPQQQPQQQPQQQPQQQPQQQPQQQPQQQPQQQPQLQPLQPQLGTQNAMQTDAPATPSPISAFSGVVNAAAPPQFAPVDNSQRFTQRGGGAVGKNRRGGRGGNRGGRNNNSTRFNPLAKALGMAGESNMNFTPTKKEGRCRLFPHCPLGRSCPHAHPTKVCNEYPNCPKPPGTCEFLHPNEDEELMKEMERTREEFQKRKADLLAAKRKPVQTGIVLCKFGALCSNPSCPFGHPTPANEDAKVIDLMWCDKNLTCDNPECRKAHSSLSKIKEVKPISQKKAAPPPVEKSLEQCKFGTHCTNKRCKYRHARSHIMCREGANCTRIDCLFGHPINEDCRFGVNCKNIYCLFRHPPGRVLPEKKGAAPNSNVPTNERPFALPENAIIENAPPQTSFTHQEQDTEMN
notes: Nab2p, S. cerevisiae; also called full-length Nab2p; source: E. coli BL21(DE3), immobilized on glutathione sepharose
Consider B1, for which the binding result in test [1] is recorded as “binds”.

B2: MBP–Nab2p NLS 210GGG212/AAA (protein)
chain: DNSQRFTQRAAAAVGKNRRGGRGGNRGGRNNNSTRFNPLAKALGMAGESNM
The term Kd denotes the concentration at which binding is half-saturated. With B2, in test [2], the ddG is -0.4 kcal/mol and the ratio to parent was 0.5. Moreover, in test [2] (parent: 37 ± 20), the Kd stood at 19 nM. For the same molecule, the other: TΔS in test [2] (parent: -1.3 ± 0.6) amounted to 0.5 kcal/mol. In addition, the dG in test [2] (parent: -10.0 ± 0.3) was -10.4 kcal/mol. Moreover, the other: ΔH in test [2] (parent: -11.3 ± 0.5) was -9.8 kcal/mol. This molecule also came in with a Kd in test [3] of 19 nM.
For B3, the Kd in test [4] worked out at 203 nM; in test [5], 63 nM; in test [6] it was 296 nM; in test [7], 66 nM; in test [8], 21 nM.
